Results taken from patent publication US20170305985A1 (Stanford University, published 2017).

Target: Met receptor on Madine-Darby canine kidney (MDCK) cells (canine (MDCK cells), UniProt Q75ZY9 25-1382)
Assay: cell-based or functional assay

inhibition of HGF-induced activation of Met, MDCK cells: ~5 fold lower concentration
B1: recombinant soluble Aras-4 (ligand)
chain: YAEGQGKRRNTIHEFKKSAKTTLIKIDPALRIKTEKANTADQCANRCTRSKGLPFTCKAFVFDKARKRCLWFPFNSMSSGVKKEFGHEFDLYENKAYIRDCIIGRGRNYRGTVSITKSGIKCQPWSAMIPHEHSFLPSSYRGEDLRENYCRNPRGEEGGPWCYTSDPEVRYEVCDIPQCSEVE
